Results from article PMC7449927.

Tests used:
[1] = western blot, BEL7402-SIX1KO rescue cells, TMG; conditions: glycan lost; control: wild-type SIX1, TMG-treated
[2] = ubiquitin affinity bead pulldown, SIX1 blot, MG132 and NEM; conditions: glycan lost; control: wild-type SIX1, TMG-treated
[3] = CHX chase western blot (half-life), TMG; conditions: glycan lost; control: wild-type SIX1, TMG-treated
[4] = western blot, BEL7402 and BEL7404 cells; conditions: glycan lost; control: untreated / control lentivirus

Protein | expression_or_secretion [1] | other: ubiquitination [2] | degradation_or_half_life [3] | expression_or_secretion [4]
SIX1 (sine oculis homeobox homolog 1): T276A (protein) parent chain: MSMLPSFGFTQEQVACVCEVLQQGGNLERLGRFLWSLPACDHLHKNESVLKAKAVVAFHRGNFRELYKILESHQFSPHNHPKLQQLWLKAHYVEAEKLRGRPLGAVGKYRVRRKFPLPRTIWDGEETSYCFKEKSRGVLREWYAHNPYPSPREKRELAEATGLTTTQVSNWFKNRRQRDRAAEAKERENTENNNSSSNKQNQLSPLEGGKPLMSSSEEEFSPPQSPDQNSVLLLQGNMGHARSSNYSLPGLTASQPSHGLQTHQHQLQDSLLGPLTSSLVDLGS | decreases | increases | decreases | –
SIX1 (sine oculis homeobox homolog 1): OGT knockdown (protein) parent chain: MSMLPSFGFTQEQVACVCEVLQQGGNLERLGRFLWSLPACDHLHKNESVLKAKAVVAFHRGNFRELYKILESHQFSPHNHPKLQQLWLKAHYVEAEKLRGRPLGAVGKYRVRRKFPLPRTIWDGEETSYCFKEKSRGVLREWYAHNPYPSPREKRELAEATGLTTTQVSNWFKNRRQRDRAAEAKERENTENNNSSSNKQNQLSPLEGGKPLMSSSEEEFSPPQSPDQNSVLLLQGNMGHARSSNYSLPGLTASQPSHGLQTHQHQLQDSLLGPLTSSLVDLGS | – | – | – | decreases
